We go through 17 molecules from publication PMC6804253, “Predicting and Experimentally Validating Hot-Spot Residues at Protein–Protein Interfaces” (ACS Chemical Biology, 2019).

Sequences and labels used below:
B1: 1A4Y KA320A (protein, UniProt P13489 2-461, looked up, variant K320A)
Ribonuclease inhibitor: SLDIQSLDIQCEELSDARWAELLPLLQQCQVVRLDDCGLTEARCKDISSALRVNPALAELNLRSNELGDVGVHCVLQGLQTPSCKIQKLSLQNCCLTGAGCGVLSSTLRTLPTLQELHLSDNLLGDAGLQLLCEGLLDPQCRLEKLQLEYCSLSAASCEPLASVLRAKPDFKELTVSNNDINEAGVRVLCQGLKDSPCQLEALKLESCGVTSDNCRDLCGIVASKASLRELALGSNKLGDVGMAELCPGLLHPSSRLRTLWIWECGITAKGCGDLCRVLRAKESLKELSLAGNELGDEGARLLCETLLEPGCQLESLWVASCSFTAACCSHFSSVLAQNRFLLELQISNNRLEDAGVRELCQGLGQPGSVLRVLWLADCDVSDSSCSSLAATLLANHSLRELDLSNNCLGDAGILQLVESVRQPGCLLEQLVLYDIYWSEEMEDRLQALEKDKPSLRVIS
B2: 1A4Y EA401A (protein, UniProt P13489 2-461, looked up, variant E401A)
Ribonuclease inhibitor: B1 Ribonuclease inhibitor with A320K, E401A
B3: 1A4Y EA344A (protein, UniProt P13489 2-461, looked up, variant E344A)
Ribonuclease inhibitor: B1 Ribonuclease inhibitor with A320K, E344A
B4: 1A4Y DA435A (protein, UniProt P13489 2-461, looked up, variant D435A)
Ribonuclease inhibitor: B1 Ribonuclease inhibitor with A320K, D435A
B5: 1A4Y SA289A (protein, UniProt P13489 2-461, looked up, variant S289A)
Ribonuclease inhibitor: B1 Ribonuclease inhibitor with S289A, A320K
B6: 1AHW TC197A (protein, UniProt P13726 33-295, looked up, variant T197A)
Tissue factor: SGTTNTVAAYNLTWKSTNFKTILEWEPKPVNQVYTVQISTKSGDWKSKCFYTTDTECDLTDEIVKDVKQTYLARVFSYPAGNVESTGSAGEPLYENSPEFTPYLETNLGQPTIQSFEQVGTKVNVTVEDERTLVRRNNTFLSLRDVFGKDLIYTLYYWKSSSSGKKTAKTNTNEFLIDVDKGENYCFSVQAVIPSRAVNRKSTDSPVECMGQEKGEFREIFYIIGAVVFVVIILVIILAISLHKCRKAGVGQSWKENSPLNVS
B7: 1DAN ST47A (protein, UniProt P13726 33-295, looked up, variant S47A)
Tissue factor: B6 Tissue factor with S47A, A197T
B8: 1DAN TT60A (protein, UniProt P13726 33-295, looked up, variant T60A)
Tissue factor: B6 Tissue factor with T60A, A197T
B9: 1AHW TC167A (protein, UniProt P13726 33-251, looked up, variant T167A)
extracellular domain: SGTTNTVAAYNLTWKSTNFKTILEWEPKPVNQVYTVQISTKSGDWKSKCFYTTDTECDLTDEIVKDVKQTYLARVFSYPAGNVESTGSAGEPLYENSPEFTPYLETNLGQPTIQSFEQVGTKVNVTVEDERTLVRRNNTFLSLRDVFGKDLIYTLYYWKSSSSGKKAAKTNTNEFLIDVDKGENYCFSVQAVIPSRTVNRKSTDSPVECMGQEKGEFRE
modifications: extracellular domain
B10: 1DAN NT18A (protein, UniProt P13726 33-251, looked up, variant N18A)
extracellular domain: B9 extracellular domain with N18A, A167T
modifications: extracellular domain
B11: 1DAN ST42A (protein, UniProt P13726 33-251, looked up, variant S42A)
extracellular domain: B9 extracellular domain with S42A, A167T
modifications: extracellular domain
B12: 1DAN ST16A (protein, UniProt P13726 33-251, looked up, variant S16A)
extracellular domain: B9 extracellular domain with S16A, A167T
modifications: extracellular domain
B13: 1DAN NU107A (protein, UniProt P13726 33-251, looked up, variant N107A)
extracellular domain: B9 extracellular domain with N107A, A167T
modifications: extracellular domain
B14: 1DAN TT17A (protein, UniProt P13726 33-251, looked up, variant T17A)
extracellular domain: B9 extracellular domain with T17A, A167T
modifications: extracellular domain
B15: 1DAN TT21A (protein, UniProt P13726 33-251, looked up, variant T21A)
extracellular domain: B9 extracellular domain with T21A, A167T
modifications: extracellular domain
B16: 1AHW NC199A (protein, UniProt P13726 33-251, looked up, variant N199A)
extracellular domain: B9 extracellular domain with A167T, N199A
modifications: extracellular domain
B17: 1DAN TT52A (protein, UniProt P13726 33-251, looked up, variant T52A)
extracellular domain: B9 extracellular domain with T52A, A167T
modifications: extracellular domain

Positions count from the first letter of the chain named.

In the first assay the test system is PPIs of the SKEMPI data set (by PDBID). Nature of the assay: SKEMPI experimental ΔΔG, single mutations to alanine. It counts as binding. To be noted: class by ΔΔG threshold 4.184 kJ/mol; ref SKEMPI.
As for B1, the “sk_class (class of the SKEMPI experimental ΔΔG)” value was “Neutral (neutral (little effect) 4.184 kJ/mol < ΔΔG > −4.184 kJ/mol)”.

In the case of B2, the “sk_class (class of the SKEMPI experimental ΔΔG)” value is “Neutral (neutral (little effect) 4.184 kJ/mol < ΔΔG > −4.184 kJ/mol)”.

For the molecule B3, the “sk_class (class of the SKEMPI experimental ΔΔG)” value is “Neutral (neutral (little effect) 4.184 kJ/mol < ΔΔG > −4.184 kJ/mol)”.

For the molecule B4, the “sk_class (class of the SKEMPI experimental ΔΔG)” value is listed as “Positive (positive (a hot residue) ΔΔG ≥ 4.184 kJ/mol)”.

Still in this assay, the particulars now being: class of the SKEMPI experimental ΔΔG.
For B5, the sk_class entry is given as “Neutral (neutral (little effect) 4.184 kJ/mol < ΔΔG > −4.184 kJ/mol)”.

As for B6, the sk_class result is “Positive (positive (a hot residue) ΔΔG ≥ 4.184 kJ/mol)”.

Regarding B7, the sk_class entry was “Neutral (neutral (little effect) 4.184 kJ/mol < ΔΔG > −4.184 kJ/mol)”.

For B8, the sk_class result is “Positive (positive (a hot residue) ΔΔG ≥ 4.184 kJ/mol)”.

B9: the sk_class result is “Neutral (neutral (little effect) 4.184 kJ/mol < ΔΔG > −4.184 kJ/mol)”.

Consider B10, for which the sk_class result is given as “Neutral (neutral (little effect) 4.184 kJ/mol < ΔΔG > −4.184 kJ/mol)”.

Turning to B11, the sk_class entry is on record as “Neutral (neutral (little effect) 4.184 kJ/mol < ΔΔG > −4.184 kJ/mol)”.

As for B12, the sk_class result is “Neutral (neutral (little effect) 4.184 kJ/mol < ΔΔG > −4.184 kJ/mol)”.

With B13, the sk_class entry is “Neutral (neutral (little effect) 4.184 kJ/mol < ΔΔG > −4.184 kJ/mol)”.

Consider B14, for which the sk_class result was “Neutral (neutral (little effect) 4.184 kJ/mol < ΔΔG > −4.184 kJ/mol)”.

Consider B15, for which the sk_class entry was “Neutral (neutral (little effect) 4.184 kJ/mol < ΔΔG > −4.184 kJ/mol)”.

As for B16, the sk_class entry was “Positive (positive (a hot residue) ΔΔG ≥ 4.184 kJ/mol)”.

Take B17: the sk_class result is on record as “Neutral (neutral (little effect) 4.184 kJ/mol < ΔΔG > −4.184 kJ/mol)”.

For another assay the test system is unchanged.
Assay: not given
Particulars: single mutation to alanine; PPI given by PDBID; sheet sortedByGroup, r_group DERKH; ref SKEMPI; cited from earlier work.
Turning to B1, the “sk_ddG_kJ (SKEMPI experimental ΔΔG, mutation to alanine)” value is -1.30 kJ.

Take B2: the “sk_ddG_kJ (SKEMPI experimental ΔΔG, mutation to alanine)” value was 3.60 kJ.

With B3, the “sk_ddG_kJ (SKEMPI experimental ΔΔG, mutation to alanine)” value was 0.67 kJ.

Regarding B4, the “sk_ddG_kJ (SKEMPI experimental ΔΔG, mutation to alanine)” value is on record as 14.56 kJ.

The assay is the same for the next values; noted with them: single mutation to alanine; complex given by PDBID, mutation by mut_pdb; ref SKEMPI; cited from earlier work.
Turning to B5, the “sk_ddG_kJ (SKEMPI experimental ΔΔG)” value is recorded as 0.13 kJ.

Still in this assay, the particulars now being: single mutation to alanine; complex given by PDBID; residue group SQNT; ref SKEMPI; cited from earlier work.
B6: the “sk_ddG_kJ (SKEMPI experimental ΔΔG)” value is given as 5.65 kJ.

Regarding B7, the “sk_ddG_kJ (SKEMPI experimental ΔΔG)” value is -0.54 kJ.

With B8, the “sk_ddG_kJ (SKEMPI experimental ΔΔG)” value was 9.67 kJ.

Turning to B9, the “sk_ddG_kJ (SKEMPI experimental ΔΔG)” value is -0.29 kJ.

In the case of B10, the “sk_ddG_kJ (SKEMPI experimental ΔΔG)” value is listed as 0.75 kJ.

B11: the “sk_ddG_kJ (SKEMPI experimental ΔΔG)” value is on record as -0.29 kJ.

With B12, the “sk_ddG_kJ (SKEMPI experimental ΔΔG)” value was -0.54 kJ.

Consider B13, for which the “sk_ddG_kJ (SKEMPI experimental ΔΔG)” value is 0.00 kJ.

For B14, the “sk_ddG_kJ (SKEMPI experimental ΔΔG)” value is reported as 0.50 kJ.

With B15, the “sk_ddG_kJ (SKEMPI experimental ΔΔG)” value is -0.67 kJ.

Turning to B16, the “sk_ddG_kJ (SKEMPI experimental ΔΔG)” value was 4.52 kJ.

Turning to B17, the “sk_ddG_kJ (SKEMPI experimental ΔΔG)” value is recorded as 1.67 kJ.
